Reference: publication PMC9250508 (2022)

B1: AZD1061 Fab (Fab, V domains shown)
VH: EVQLVESGGGLVKPGGSLRLSCAASGFTFRDVWMSWVRQAPGKGLEWVGRIKSKIDGGTTDYAAPVKGRFTISRDDSKNTLYLQMNSLKTEDTAVYYCTTAGSYYYDTVGPGLPEGKFDYWGQGTLVTVSS
VL: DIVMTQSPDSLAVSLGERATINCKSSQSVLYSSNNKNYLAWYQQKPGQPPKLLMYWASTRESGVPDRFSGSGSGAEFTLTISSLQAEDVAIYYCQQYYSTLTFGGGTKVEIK
B2: AZD8895 Fab (Fab, V domains shown)
VH: QMQLVQSGPEVKKPGTSVKVSCKASGFTFMSSAVQWVRQARGQRLEWIGWIVIGSGNTNYAQKFQERVTITRDMSTSTAYMELSSLRSEDTAVYYCAAPYCSSISCNDGFDIWGQGTMVTVSS
VL: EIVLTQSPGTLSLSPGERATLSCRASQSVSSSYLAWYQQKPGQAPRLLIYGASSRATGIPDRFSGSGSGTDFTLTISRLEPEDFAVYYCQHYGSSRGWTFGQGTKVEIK

Target: D614G RBD
Experiment: BLI

| Binder | Kd | koff |
| --- | --- | --- |
| B1 | 14.5 nM | 0.00217 s⁻¹ |
| B2 | 9.79 nM | 0.00603 s⁻¹ |
